Laboratory results: the supplement of paper PMC10567573

B1: RBBP5 (parent)
chain: TGTSNTTAIKSIEFARKGSCFLIN

Variants of: B1
Assay: protein stability index of a GFP-peptide fusion (GPS, HEK-293T) (PSI 1-6); higher = more stable
Settings: c terminus: a fixed tail appended
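Further: lentivirally expressed fusions sorted by FACS into six bins by GFP to DsRed ratio, PSI derived from sequencing read proportions per bin multiplied by bin number.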

Protein stability index, by site and new letter:
F21: C 2.44; H 2.86; T 3.5; L 2.07; A 3.36; N 3.53; E 3.73; R 3.15; V 2.75; Y 2.56; Q 3.17; W 2.25; S 3.09; P 3.13; G 3.35; D 3.83; I 2.37; M 3.52; K 3.48
A15: H 2.39; D 2.9; P 2.46; Y 1.74; M 1.94; T 1.79; R 2.22; G 2.38; C 1.89; N 2.67; V 1.66; S 2.09; Q 2.51; K 2.42; E 2.44; F 2.52; W 2.23; L 2.58; I 1.63
A8: C 2.71; K 2.2; M 2.21; D 2.36; L 2.17; V 1.58; P 2.69; H 1.85; G 2.84; R 1.62; S 2.01; W 2.62; Q 2.21; T 2.68; I 1.74; F 1.81; N 2.56; Y 2.22; E 2.71
S19: C 2.67; H 2.04; T 1.79; N 2.17; Y 1.26; A 1.62; L 2.56; V 2.25; K 2.92; I 2.75; F 1.61; M 1.59; R 2.24; W 1.94; E 2.33; Q 2.24; P 2.04; D 3.72; G 1.93
T7: C 1.26; S 2.4; E 2.51; N 2.14; P 2.74; Q 2.66; D 2.3; A 2.85; G 2.56; H 1.97; K 2.04; Y 1.89; M 1.95; V 1.96; R 2.15; W 1.95; I 2.23; L 1.77; F 1.93
C20: N 3.03; H 2.16; Y 2.12; T 2.56; L 2.25; F 1.9; D 2.6; A 2.6; I 2.23; E 2.98; R 2.55; Q 2.51; G 2.49; W 1.63; K 2.58; V 2.09; P 2.74; S 2.59; M 2.01
E13: L 2.38; C 1.97; W 2.23; R 1.72; A 1.92; I 2.89; T 2.31; H 2.4; M 2.15; P 1.75; N 1.75; K 2.19; D 2.32; F 2.75; Y 2.6; Q 1.67; G 2.11; V 1.54; S 2.38
I23: C 2.36; A 2.67; F 1.98; E 3.38; G 2.73; D 3.02
G18: W 1.62; F 1.99; I 2.2; K 2.3; P 2.35; D 2.89; L 2.35; N 2.18; A 1.9; M 1.85; Q 2.28; R 2.15; S 2.32; E 2.62; C 1.63; T 1.71; V 3.95; Y 2.07; H 1.74
T6: L 2.16; P 2.29; W 1.74; A 2.87; I 1.63; E 2.82; Q 2.12; V 1.87; K 2.15; H 2.67; G 1.98; M 2.04; F 2.09; Y 1.87; D 2.55; N 3.06; S 2.64; R 1.55; C 2.05
R16: H 2.15; L 3.26; A 1.89; C 1.77; I 3.29; V 1.99; N 3.21; Q 2.73; S 2.44; E 3; G 2.42; M 1.75; W 1.74; P 2.34; Y 2.49; F 2.26; K 2.76; D 2.7; T 2.26
S11: L 2.5; M 2.09; T 2.1; H 3.02; F 2.45; W 2.77; C 1.74; Y 1.32; V 2.48; D 2.6; K 2.13; I 3.31; R 2.12; P 2.61; A 2.18; N 2.92; G 2.12; Q 2.74; E 2.23
I9: H 2.35; E 2.91; C 2.28; R 2.34; Y 1.88; Q 2.62; D 2.86; P 2.61; L 2.03; W 1.5; M 2.67; S 2.12; A 2.48; G 2.37; F 1.98; T 2.92; V 2.76; K 2.47; N 2.44
K10: G 2.19; R 2.29; C 2.38; L 2.74; N 1.86; V 1.93; M 1.94; P 2.38; A 1.64; E 2.62; S 2.93; Q 2.82; H 2.77; I 2.15; D 2.08; Y 3.11; F 2.9; T 1.77
L22: R 2.81; V 2.28; N 3.09; P 3.53; Q 3.48; I 2.55; M 2.64; W 1.71; E 3.31; Y 2.54; A 2.33; F 1.99; C 2.79; K 3.21; S 3.05; T 3.09; G 3.03; D 3.15; H 2.52
I12: A 2.94; S 2.67; C 2.67; T 2.61; N 2.67; G 2.4; E 3.5; R 2.57; Q 3.29; H 2.94; M 2.61; L 1.78; V 2.6; W 2.4; F 2; D 2.79; K 2.23; P 3; Y 2.12
F14: Q 3.12; G 2.76; L 2.51; N 3.17; H 2.73; M 2.69; D 3.15; E 3.84; Y 2.38; P 3.05; R 3.05; C 2.53; K 3.17; T 2.97; I 2.64; S 3.42; W 2.07; V 2.86; A 3.06
N5: V 2.38; Y 1.63; S 2.02; R 2.36; T 2.09; W 1.64
K17: Y 2.22; G 2.24; L 1.75; R 2.7; N 2.63; D 2.7; A 2.24; T 2.46; E 2.6; S 2.47; M 1.73; V 1.7; P 2.3; W 2.11; Q 2.5; C 1.8; F 2.17; I 1.29; H 2.33
